Test results published in article PMC4740771, “Nucleotide-dependent assembly of the peroxisomal receptor export complex” (Scientific Reports, 2016).
Each block holds one molecule with its values, some of them ahead of it.

How the values were obtained:
[1] = biological target: Pex15p(1-315)His (GST removed by thrombin) (S. cerevisiae) (UniProt Q08215); assay: SEC; as a8 but 2.5 mM ATPγS added during thrombin incubation of the wild-type complex
[2] = biological target: Pex15p(1-315)His (GST removed by thrombin) (S. cerevisiae) (UniProt Q08215); assay: SEC; 700 kDa fractions of the Pex1/6p/Pex15p complexes pooled, kept 72 h on ice (4 °C), then size exclusion again; anti-His immunoblot, signal intensities
[3] = biological target: GST-Pex15p(1-315)His (S. cerevisiae) (UniProt Q08215); assay: pull-down; GST-Pex15p(1-315)His incubated with purified proteins, loaded on GSH-agarose, eluted with glutathione; 5 mM ATP; Coomassie and immunoblot, signal intensities of load and eluate
[4] = biological target: Pex15p(1-315)His (GST removed by thrombin) (S. cerevisiae) (UniProt Q08215); assay: SEC; Pex1/6p/Pex15p complex isolated on GSH-agarose, released by thrombin (GST left on the column), Superose 6 (small-scale and preparative) in presence of ATP; anti-His immunoblot or Coomassie, signal intensities by ImageJ
[5] = biological target: the molecule itself; assay: SEC; second gel filtration of the purified heterohexameric complexes after incubation at 37 °C
[6] = biological target: T1, Pex15p(1-315)His (GST removed by thrombin) (S. cerevisiae, UniProt Q08215 1-315); assay: SEC; Pex1/6p/Pex15p complex isolated on GSH-agarose, released by thrombin (GST left on the column), Superose 6 (small-scale and preparative) in presence of ATP; anti-His immunoblot or Coomassie, signal intensities by ImageJ; conditions: both partners purified
T1 construct: Pex15p of S. cerevisiae, cytosolic part, residues 1 to 315; Same construct as m10 after thrombin cleavage; detected by anti-His antibodies; Printed mass 36 kDa; alone it eluted at about 100 kDa; also called Pex15pHis; source: E. coli BL21 (DE3), purified (Glutathione Agarose 4B), released from GSH-agarose by thrombin; not shown: GST, N-terminal, cleaved; His6, C-terminal, kept
T1 sequence (looked up): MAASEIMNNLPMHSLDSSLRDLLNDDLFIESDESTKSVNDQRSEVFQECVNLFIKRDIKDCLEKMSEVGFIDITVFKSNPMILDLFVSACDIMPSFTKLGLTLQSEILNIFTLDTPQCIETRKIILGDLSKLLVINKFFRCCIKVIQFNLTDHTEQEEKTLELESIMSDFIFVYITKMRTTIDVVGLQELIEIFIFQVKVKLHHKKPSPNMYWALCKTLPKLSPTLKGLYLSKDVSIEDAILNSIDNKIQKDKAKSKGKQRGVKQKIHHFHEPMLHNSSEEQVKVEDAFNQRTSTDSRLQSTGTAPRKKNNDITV

[7] = biological target: T2, HisPex1p released from HisPex1pGST by thrombin (S. cerevisiae, UniProt P24004 1-1043); assay: as above; conditions: both partners purified
T2 construct: Pex1p, type II AAA-ATPase peroxin of yeast; The GST tag held the complex on GSH-agarose during purification and stayed on the column after thrombin cleavage; source: E. coli Tuner (DE3), co-purified with HisPex6p (NiNTA-agarose, GSH-agarose, thrombin release); not shown: His6, N-terminal, kept; GST, C-terminal, cleaved
T2 sequence (looked up): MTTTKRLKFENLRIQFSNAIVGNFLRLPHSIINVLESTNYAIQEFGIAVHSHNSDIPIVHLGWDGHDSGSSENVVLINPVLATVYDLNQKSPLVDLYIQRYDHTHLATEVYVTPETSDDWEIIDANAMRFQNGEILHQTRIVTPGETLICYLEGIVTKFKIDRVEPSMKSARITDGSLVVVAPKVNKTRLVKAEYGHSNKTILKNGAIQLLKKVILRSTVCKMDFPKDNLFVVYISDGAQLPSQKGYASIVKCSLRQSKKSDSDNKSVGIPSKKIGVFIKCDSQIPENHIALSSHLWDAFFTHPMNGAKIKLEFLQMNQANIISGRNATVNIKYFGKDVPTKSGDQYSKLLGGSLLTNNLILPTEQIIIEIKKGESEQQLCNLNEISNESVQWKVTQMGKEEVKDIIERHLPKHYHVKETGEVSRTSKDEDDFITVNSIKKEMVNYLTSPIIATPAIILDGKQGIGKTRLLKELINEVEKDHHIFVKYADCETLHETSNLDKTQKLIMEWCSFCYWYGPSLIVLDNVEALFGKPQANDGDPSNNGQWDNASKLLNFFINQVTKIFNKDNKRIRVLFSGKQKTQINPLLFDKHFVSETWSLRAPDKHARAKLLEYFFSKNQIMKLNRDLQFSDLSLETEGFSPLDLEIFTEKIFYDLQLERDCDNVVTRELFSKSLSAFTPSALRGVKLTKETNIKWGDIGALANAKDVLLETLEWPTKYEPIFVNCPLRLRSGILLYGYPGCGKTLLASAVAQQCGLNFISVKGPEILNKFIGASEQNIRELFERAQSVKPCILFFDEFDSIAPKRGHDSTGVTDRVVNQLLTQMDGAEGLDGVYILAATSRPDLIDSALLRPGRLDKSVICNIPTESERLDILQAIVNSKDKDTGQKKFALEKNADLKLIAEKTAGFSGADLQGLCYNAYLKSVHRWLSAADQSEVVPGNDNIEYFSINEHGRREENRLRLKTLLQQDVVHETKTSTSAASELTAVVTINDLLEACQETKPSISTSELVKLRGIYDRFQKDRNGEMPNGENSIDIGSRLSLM

- percent of Pex15p still bound after 72 h [1]: 20%
- percent of Pex15p still bound after 72 h [2]: < 10%
- fold binding against single Pex6p [3]: 3 fold
- stoichiometry N (Pex15p per Pex1p of the complex) [4]: 0.9
- stoichiometry N ([4]; scale: Pex15p per heterohexameric Pex1/6p complex): 3
Molecule: Pex1/6p-complex (recombinant heterohexameric AAA-complex), P24004 1-1043; P33760 1-1030

- percent of Pex15p still bound after 72 h [2]: 40%
- stoichiometry N (Pex15p per Pex1p of the complex) [4]: 0.9
Molecule: Pex1/6pWB complex (wild-type Pex1p with Pex6p E832Q), P24004 1-1043; P33760 1-1030

B1: HisPex1p(D797N) released from its GST fusion (natural protein, S. cerevisiae, UniProt P24004 1-1043, looked up)
chain: MTTTKRLKFENLRIQFSNAIVGNFLRLPHSIINVLESTNYAIQEFGIAVHSHNSDIPIVHLGWDGHDSGSSENVVLINPVLATVYDLNQKSPLVDLYIQRYDHTHLATEVYVTPETSDDWEIIDANAMRFQNGEILHQTRIVTPGETLICYLEGIVTKFKIDRVEPSMKSARITDGSLVVVAPKVNKTRLVKAEYGHSNKTILKNGAIQLLKKVILRSTVCKMDFPKDNLFVVYISDGAQLPSQKGYASIVKCSLRQSKKSDSDNKSVGIPSKKIGVFIKCDSQIPENHIALSSHLWDAFFTHPMNGAKIKLEFLQMNQANIISGRNATVNIKYFGKDVPTKSGDQYSKLLGGSLLTNNLILPTEQIIIEIKKGESEQQLCNLNEISNESVQWKVTQMGKEEVKDIIERHLPKHYHVKETGEVSRTSKDEDDFITVNSIKKEMVNYLTSPIIATPAIILDGKQGIGKTRLLKELINEVEKDHHIFVKYADCETLHETSNLDKTQKLIMEWCSFCYWYGPSLIVLDNVEALFGKPQANDGDPSNNGQWDNASKLLNFFINQVTKIFNKDNKRIRVLFSGKQKTQINPLLFDKHFVSETWSLRAPDKHARAKLLEYFFSKNQIMKLNRDLQFSDLSLETEGFSPLDLEIFTEKIFYDLQLERDCDNVVTRELFSKSLSAFTPSALRGVKLTKETNIKWGDIGALANAKDVLLETLEWPTKYEPIFVNCPLRLRSGILLYGYPGCGKTLLASAVAQQCGLNFISVKGPEILNKFIGASEQNIRELFERAQSVKPCILFFNEFDSIAPKRGHDSTGVTDRVVNQLLTQMDGAEGLDGVYILAATSRPDLIDSALLRPGRLDKSVICNIPTESERLDILQAIVNSKDKDTGQKKFALEKNADLKLIAEKTAGFSGADLQGLCYNAYLKSVHRWLSAADQSEVVPGNDNIEYFSINEHGRREENRLRLKTLLQQDVVHETKTSTSAASELTAVVTINDLLEACQETKPSISTSELVKLRGIYDRFQKDRNGEMPNGENSIDIGSRLSLM
notes: Pex1p of yeast with a mutation of the aspartate of the Walker B motif of the D2 domain; also called Pex1WB^D797N; Pex1pWB^D797N; not shown: His6, N-terminal, kept; GST, C-terminal, cleaved
- stoichiometry N [5]: 3

- stoichiometry N [6]: 1 Pex15p per Pex6p
- stoichiometry N [7]: 0.9 Pex6p per Pex1p
B2: HisPex6p(E832Q) (natural protein, S. cerevisiae, UniProt P33760 1-1030, looked up)
chain: MKASLTFSLSGIYAPCSISRDIYLEYGDKKAECLYGTIRLPQYGPGCTPGKIVHCVLDDSLPFCSIVVPSKLFGFMPTQPTMDFCYFEPILDNVVPVLDSVTFLINEQLYSKLMDLPQEMQQIQFLHYKYNINSMETVVHSRDILTSGLCQILNCSPFPQGLVDFTETQLILVNDTEQKLSALKYANEDEEYALPKIGTNSALSIDLESLPCTISRDLLRPAPHINDDNSIYAFTDAETLLRLDVTSGSFITVSNMGCVRLVKLFVLLLPNGFKKRTIYAPPKIIASFPDCSVVTISKSNIGHTDIPIANQVFISRVGGWLQSQKCFQNIILTTLKKFFSESKRILCQNDLIPIAFDSSMADLNIAEENDESDDEDELGQYYKNDSLVWFFVTSAELDCFSKDNSHFIIDPNRTKLITTNITNRRPLPLSRSNLQRYYGFAETFYYDLHIFPYVRQLVNILETSFNCSQRGITLNASVLLHSTTNNVGKATMVRFASKYLGIHLLEIDCLSLTSNSRQLDSTSKIIGYIRAKCENVLPYASPAVIFLAHLDSILLDVNANQDPEAIKLQKSINFEMSKLLDDFTFKFPGTTFVGSVNNIDNVPSSFRSHMRFEILVPVPSEAQRLRIFQWYLSSHELNRDVQQKVPVSYMDNISFSSLSSYSAGLTPLDIKSIVETARMTATARFYQESKKCGWLPQSILITQEDLSKATSKARNEFSVSIGAPQIPNVTWDDIGGIDFVKGEILDTIDMPLKHPELFTSGMKKRSGILFYGPPGTGKTLMAKAIATNFSLNFFSVKGPELLNMYIGESEANVRRVFQKAREAKPCVIFFDQIDSVAPKRGNQGDSGGVMDRIVSQLLAELDGMSTDADGVFVIGATNRPDLLDEALLRPGRFDKLLYLGIPDTDTKQLNILEALTRKFVLDNDVKLIELAKLCPFNYTGADFYALCSDAMLNAMSRIARMVEKKVSQHNELTGENISTRRWFDKIATKEDTKVVVKMEDFLKAQEQLTPSVSRAELNHYEAVRANFEGA
notes: Pex6p of yeast with the Walker B mutation of the D2 domain; also called Pex6pWB; PEX6WB^E832Q; source: E. coli Tuner (DE3), co-purified with HisPex1pGST; not shown: His6, N-terminal, kept
